Test results from publication PMC6426329 (Journal of immunology (Baltimore, Md. : 1950), 2018).
Entries after “also recorded” stand apart in the source; their conditions may differ.

B1: GAD65 305–324 peptide (peptide)
chain: DERGKMIPSDLERRILEAKQ
B2: GAD65 449–468 peptide (peptide)
chain: HVDVFKLWLMWRAKGTTGFE
B3: GAD65 201–220 peptide (peptide)
chain: NTNMFTYEIAPVFVLLEYVT
B4: GAD65 353–372 peptide (peptide)
chain: ICKKYKIWMHVDAAWGGGLL
B5: GAD65 529–548 peptide (peptide)
chain: VAPVIKARMMEYGTTMVSYQ
B6: GAD65 209–228 peptide (peptide)
chain: IAPVFVLLEYVTLKKMREII
B7: GAD65 113–132 peptide (peptide)
chain: DVMNILLQYVVKSFDRSTKV
B8: GAD65 513–532 peptide (peptide)
chain: LRTLEDNEERMSRLSKVAPV
B9: GAD65 553–572 peptide (peptide)
chain: KVNFFRMVISNPAATHQDID
B10: GAD65 313–332 peptide (peptide)
chain: SDLERRILEAKQKGFVPFLV
B11: GAD65 241–260 peptide (peptide)
chain: PGGAISNMYAMMIARFKMFP
B12: GAD65 566–585 peptide (peptide)
chain: ATHQDIDFLIEEIERLGQDL

These molecules were tested against DRB4 protein (Homo sapiens, UniProt P01903+P13762, G164S) (assay: Peptide binding competition assay). Details: in vitro competition assay.

With “PPI 12–23: truncated version of the PPI 9–28 peptide (ALLALWGPDPAA)” the “Binding to DRB4 (in words)” value was “able to bind; also recorded: detectable binding”.

These molecules were tested against Recombinant DRB4 protein (DRA1/B4*01:01) (human) (UniProt P01903) (assay: peptide binding competition assay). Details: not given.

Going from GAD65 265–284 peptide to B1, the IC50 rises from 10 µM to 29 µM (2.9-fold).

Compared with B2, B3 is 27-fold lower in IC50: 32 µM for the first, 1.2 µM for the second. The second is the more potent here.

First: B4
Second: B5
The IC50 of the first is 3.1-fold lower: 0.9 µM for the first, 2.8 µM for the second.

Compared with B6, B7 is 15-fold lower in IC50: 21 µM for the first, 1.4 µM for the second. The second is the more potent here.

B8 and B9 are within 1.5-fold of each other in IC50: 5.9 µM for the first, 7.8 µM for the second.

First: B10
Second: B11
The IC50 of the first is 37-fold higher: 22 µM for the first, 0.6 µM for the second.

Molecule B12 has an IC50 of 12 µM.
